Data taken from the Immune Epitope Database (IEDB).

Assays:
HLA-B*18:01 = test: IEDB peptide-MHC binding, purified MHC/competitive/radioactivity; filed as Kd, often an IC50 or EC50 that approximates it; ≥ and ≤ were set here for values at or beyond the usual limits of such assays
HLA-B*45:01 = test: as above
HLA-B*40:01 = test: as above
HLA-B*40:02 = test: as above
HLA-B*44:03 = test: as above
HLA-B*44:02 = test: as above
HLA-A*03:01 = test: IEDB peptide-MHC binding, purified MHC/competitive/fluorescence; filed as Kd, often an IC50 or EC50 that approximates it; ≥ and ≤ were set here for values at or beyond the usual limits of such assays; conditions: source organism: Escherichia coli O157:H7 str. Sakai
HLA-A*32:01 = test: IEDB peptide-MHC binding, purified MHC/competitive/radioactivity; filed as Kd, often an IC50 or EC50 that approximates it; ≥ and ≤ were set here for values at or beyond the usual limits of such assays; conditions: source organism: Dengue virus 3 Martinique/1243/1999
HLA-A*02:06 = test: as above; conditions: source organism: Dengue virus 3 Martinique/1243/1999
HLA-B*15:17 = test: IEDB peptide-MHC binding, purified MHC/direct/fluorescence; filed as Kd, often an IC50 or EC50 that approximates it; ≥ and ≤ were set here for values at or beyond the usual limits of such assays; conditions: source organism: dengue virus type 4
HLA-B*57:01 = test: as above; conditions: source organism: dengue virus type 4
[1] = source organism: Mammarenavirus whitewaterense
[2] = source organism: Mammarenavirus machupoense
[3] = source organism: SARS coronavirus Tor2
[4] = source organism: Mammarenavirus juninense
[5] = source organism: Mammarenavirus lassaense

Sequence AEQSRIFEEL has a Kd (HLA-B*18:01; [1]) of no less than 20800 nM, a Kd (HLA-B*45:01; [1]) of 206 nM and a Kd (HLA-B*40:01; [1]) of 10200 nM. For the same sequence, the Kd (HLA-B*40:02; [1]) was 16.8 nM, the Kd (HLA-B*44:03; [1]) was 430 nM and the Kd (HLA-B*44:02; [1]) was 57.4 nM.

For EEPAALLPL, the Kd (HLA-B*18:01; [2]) was 5640 nM, the Kd (HLA-B*45:01; [2]) was no less than 23400 nM and the Kd (HLA-B*40:01; [2]) was 7110 nM. For the same sequence, the Kd (HLA-B*40:02; [2]) was 57.1 nM, the Kd (HLA-B*44:03; [2]) was no less than 41200 nM and the Kd (HLA-B*44:02; [2]) was no less than 39900 nM.

With FSFGDYFKH the Kd (HLA-A*03:01) was no less than 20000 nM.

With GETALALLL the Kd (HLA-B*18:01; [3]) was no less than 22700 nM, the Kd (HLA-B*45:01; [3]) was 448 nM and the Kd (HLA-B*40:01; [3]) was 1.22 nM. It also gave a Kd (HLA-B*40:02; [3]) of 7.78 nM, a Kd (HLA-B*44:03; [3]) of 13.2 nM and a Kd (HLA-B*44:02; [3]) of 31.4 nM.

For HDLPLLCTL, the Kd (HLA-B*18:01; [4]) was 1710 nM, the Kd (HLA-B*45:01; [4]) was no less than 74600 nM and the Kd (HLA-B*40:01; [4]) was 16100 nM. It also gave a Kd (HLA-B*40:02; [4]) of 8.52 nM, a Kd (HLA-B*44:03; [4]) of 19100 nM and a Kd (HLA-B*44:02; [4]) of 9820 nM.

Sequence KAYAQMWSL has a Kd (HLA-A*32:01) of 24.8 nM, a Kd (HLA-A*02:06) of 27.2 nM and a Kd (HLA-B*15:17) of 1.3 nM. For the same sequence, the Kd (HLA-B*57:01) was 10.1 nM.

KEAYCQEFLL gave a Kd (HLA-B*18:01; [5]) of no less than 45900 nM, a Kd (HLA-B*45:01; [5]) of 6680 nM and a Kd (HLA-B*40:01; [5]) of 10200 nM. For the same sequence, the Kd (HLA-B*40:02; [5]) was 33.7 nM, the Kd (HLA-B*44:03; [5]) was 5010 nM and the Kd (HLA-B*44:02; [5]) was 1260 nM.
